Results as given in PMC12238573 (Nature Communications, 2025).

B1: PRPS2 (endogenous, mouse) (enzyme, UniProt Q9CS42 1-318, looked up)
chain: MPNIVLFSGSSHQDLSQRVADRLGLELGKVVTKKFSNQETSVEIGESVRGEDVYIIQSGCGEINDNLMELLIMINACKIASSSRVTAVIPCFPYARQDKKDKSRAPISAKLVANMLSVAGADHIITMDLHASQIQGFFDIPVDNLYAEPAVLQWIRENITEWRNCIIVSPDAGGAKRVTSIADRLNVEFALIHKERKKANEVDRMVLVGDVKDRVAILVDDMADTCGTICHAADKLLSAGATKVYAILTHGIFSGPAISRINSAAFEAVVVTNTIPQEDKMKHCSKIQVIDISMILAEAIRRTHNGESVSYLFSHVPL
notes: PRPS2, endogenous in mouse cells and tissues; also called P2; phosphoribosyl pyrophosphate synthetase 2; source: endogenous, NIH3T3 lysate (parental and CRISPR knockout lines); endogenous, C57BL/6 mouse liver, kidney and lung lysates

Legend:
[1] = biological target: Branchiostoma lanceolatum Class II PRPS (Branchiostoma lanceolatum); assay: SEC; lysate of HEK293T cells with exogenously expressed Class II PRPS; fractions analysed by Western blot
[2] = biological target: the molecule itself; assay: SEC; native whole-cell lysates of NIH3T3 AP1 KO and AP1/AP2 KO cells on Yarra SEC-2000 (1 kDa to 300 kDa); fractions analysed by Western blot

| Molecule | stoichiometry N [1] | stoichiometry N [2] |
| --- | --- | --- |
| Branchiostoma lanceolatum Class II PRPS (enzyme) | 2 to 6 | – |
| B1 | – | 2 |
